Binding (mean fluorescence intensity) and % cells bound to immobilized E-cadherin data for two substances are collected here from patent US20030232387A1.

Assay [1] concerns the target human αEβ7 integrin expressed on cells (human) (UniProt P38570). In words: staining of K562 αEβ7 cells, 10 µg/ml; Ca^2+ and Mg^2+ (1 mM each).
The target is the same in assay [2]. In words: staining of K562 αEβ7 cells, 2.5 µg/ml; Ca^2+ and Mg^2+ (1 mM each).
For assay [3] the target is unchanged. In words: staining of K562 αEβ7 cells, 5 µg/ml; Ca^2+, Mg^2+ and Mn^2+ (1 mM each).
Assay [4] addresses E-cadherin-IgG fusion protein (human) (UniProt P12830). In words: cell adhesion assay; buffer with Ca^2+, Mg^2+ and Mn^2+ (1 mM each).
Assay [5] has the same target. In words: cell adhesion assay; buffer with EDTA (5 mM).
Assay [6] has the same target. In words: cell adhesion assay; buffer with Ca^2+ and Mg^2+ (1 mM each).

Chain of human αEβ7 integrin expressed on cells (human) (P38570 other isoform, or with tags, fused parts or gaps limits assumed, chain 1 of 2): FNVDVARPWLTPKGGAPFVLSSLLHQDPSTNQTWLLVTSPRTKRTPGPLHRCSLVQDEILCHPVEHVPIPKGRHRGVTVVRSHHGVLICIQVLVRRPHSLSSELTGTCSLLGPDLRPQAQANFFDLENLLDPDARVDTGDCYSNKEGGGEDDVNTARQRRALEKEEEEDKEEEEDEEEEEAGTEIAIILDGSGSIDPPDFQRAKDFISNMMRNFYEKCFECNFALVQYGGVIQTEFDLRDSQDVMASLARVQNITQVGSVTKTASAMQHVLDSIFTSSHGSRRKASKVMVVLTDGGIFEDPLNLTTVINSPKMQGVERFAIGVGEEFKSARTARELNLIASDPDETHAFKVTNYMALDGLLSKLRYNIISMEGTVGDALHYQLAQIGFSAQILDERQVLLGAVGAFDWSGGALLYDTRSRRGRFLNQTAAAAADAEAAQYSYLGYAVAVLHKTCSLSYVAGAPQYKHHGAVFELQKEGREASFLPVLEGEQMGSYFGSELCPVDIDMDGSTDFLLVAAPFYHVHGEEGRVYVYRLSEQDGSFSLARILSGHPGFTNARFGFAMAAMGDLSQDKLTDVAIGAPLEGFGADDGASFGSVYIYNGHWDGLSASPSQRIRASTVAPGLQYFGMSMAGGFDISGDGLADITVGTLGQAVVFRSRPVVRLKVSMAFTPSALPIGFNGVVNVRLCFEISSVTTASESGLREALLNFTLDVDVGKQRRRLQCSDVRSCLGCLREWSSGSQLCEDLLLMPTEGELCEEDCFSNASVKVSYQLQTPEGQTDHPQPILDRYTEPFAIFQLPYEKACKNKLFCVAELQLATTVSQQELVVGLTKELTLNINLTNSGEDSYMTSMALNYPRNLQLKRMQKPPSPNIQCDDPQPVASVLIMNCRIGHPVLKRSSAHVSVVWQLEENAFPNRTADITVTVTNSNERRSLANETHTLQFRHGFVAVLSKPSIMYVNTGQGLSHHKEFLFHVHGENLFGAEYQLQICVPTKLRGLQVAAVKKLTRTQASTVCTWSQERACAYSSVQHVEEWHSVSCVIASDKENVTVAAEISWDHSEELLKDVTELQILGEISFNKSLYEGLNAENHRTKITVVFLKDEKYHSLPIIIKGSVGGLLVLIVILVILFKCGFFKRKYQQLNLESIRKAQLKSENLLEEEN
Chain of human αEβ7 integrin expressed on cells (human) (chain, as listed by the source limits assumed, chain 2 of 2): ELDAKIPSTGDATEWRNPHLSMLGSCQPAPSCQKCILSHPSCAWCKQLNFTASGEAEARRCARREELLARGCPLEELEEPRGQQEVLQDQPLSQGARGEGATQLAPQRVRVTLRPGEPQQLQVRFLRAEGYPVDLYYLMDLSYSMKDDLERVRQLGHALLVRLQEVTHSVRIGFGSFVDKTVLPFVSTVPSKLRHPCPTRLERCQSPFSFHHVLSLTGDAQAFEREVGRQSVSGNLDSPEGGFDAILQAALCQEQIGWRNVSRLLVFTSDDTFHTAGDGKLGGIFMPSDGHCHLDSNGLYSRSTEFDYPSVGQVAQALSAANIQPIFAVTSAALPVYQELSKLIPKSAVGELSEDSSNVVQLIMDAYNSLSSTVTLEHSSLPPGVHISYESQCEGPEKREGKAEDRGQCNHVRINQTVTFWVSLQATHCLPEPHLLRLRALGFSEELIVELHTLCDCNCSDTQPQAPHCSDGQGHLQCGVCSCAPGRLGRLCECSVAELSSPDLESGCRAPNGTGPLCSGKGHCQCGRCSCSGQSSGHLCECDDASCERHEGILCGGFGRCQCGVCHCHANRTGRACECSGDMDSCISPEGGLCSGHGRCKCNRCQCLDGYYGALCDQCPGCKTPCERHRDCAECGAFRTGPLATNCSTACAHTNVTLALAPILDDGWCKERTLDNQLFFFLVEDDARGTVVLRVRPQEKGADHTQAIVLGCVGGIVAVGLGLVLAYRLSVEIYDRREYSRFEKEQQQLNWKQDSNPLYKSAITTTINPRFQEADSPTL

For “E-cadherin-IgG fusion protein (from UniProt P12830 155-699) (Fc fusion)”, the Binding (mean fluorescence intensity) in assay [1] is 75 MFI; in assay [2], less than 25 MFI; in assay [3] it was 100 MFI.

Take “human αEβ7 integrin expressed on cells (from UniProt P38570 19-1179; P26010 20-798) (receptor)”: the % cells bound to immobilized E-cadherin was 60% in assay [4], less than 10% in assay [5] and 40% in assay [6].
